Measured values taken from PMC8882007, “Syndapin-2 mediated transcytosis of amyloid-β across the blood–brain barrier” (Brain Communications, 2022).

Key:
Assay in all cases: proximity ligation; Duolink PLA between two endogenous proteins in polarized bEnd3 monolayers, fixed in 4% PFA and permeabilized with 0.1% Triton X-100; two primary antibodies overnight at 4°C; PLA signal normalized by the number of nuclei; also in shRNA control (scramble) and syndapin-2 knockdown cells, and after FAM-Aβ (1–40) or Aβ monomers, oligomers or fibrils for 15 min
[1] = target: Rab11 (mouse (endogenous in bEnd3)) (UniProt P62492)
[2] = target: Rab7 (mouse (endogenous in bEnd3)) (UniProt P51150)
[3] = target: Rab5 (mouse (endogenous in bEnd3)) (UniProt Q9CQD1)

Measured: PLA dots per cell (dots per cell)

Chain of syndapin-2 (Q9WVE8 whole entry): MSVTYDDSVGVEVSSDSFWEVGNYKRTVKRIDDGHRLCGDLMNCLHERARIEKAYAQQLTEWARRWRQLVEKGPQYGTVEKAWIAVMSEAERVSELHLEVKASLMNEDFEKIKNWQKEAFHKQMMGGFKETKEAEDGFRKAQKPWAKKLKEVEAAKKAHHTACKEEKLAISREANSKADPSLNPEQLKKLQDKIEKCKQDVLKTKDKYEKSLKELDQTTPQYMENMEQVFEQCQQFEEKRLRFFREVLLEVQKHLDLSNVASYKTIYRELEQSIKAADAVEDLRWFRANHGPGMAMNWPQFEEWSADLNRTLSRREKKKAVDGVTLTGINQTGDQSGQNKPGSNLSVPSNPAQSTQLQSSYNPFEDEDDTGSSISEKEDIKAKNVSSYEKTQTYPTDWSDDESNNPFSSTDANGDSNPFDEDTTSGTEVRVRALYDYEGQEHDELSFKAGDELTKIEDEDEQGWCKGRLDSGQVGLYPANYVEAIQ
Chain of Rab5 (mouse (endogenous in bEnd3)) (Q9CQD1 whole entry): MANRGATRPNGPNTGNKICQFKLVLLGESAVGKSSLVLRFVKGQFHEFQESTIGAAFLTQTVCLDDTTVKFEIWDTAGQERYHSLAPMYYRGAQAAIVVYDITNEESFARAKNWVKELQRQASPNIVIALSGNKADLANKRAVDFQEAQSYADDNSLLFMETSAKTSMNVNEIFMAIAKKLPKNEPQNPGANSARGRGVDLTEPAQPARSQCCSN
Chain of Rab11 (mouse (endogenous in bEnd3)) (P62492 whole entry): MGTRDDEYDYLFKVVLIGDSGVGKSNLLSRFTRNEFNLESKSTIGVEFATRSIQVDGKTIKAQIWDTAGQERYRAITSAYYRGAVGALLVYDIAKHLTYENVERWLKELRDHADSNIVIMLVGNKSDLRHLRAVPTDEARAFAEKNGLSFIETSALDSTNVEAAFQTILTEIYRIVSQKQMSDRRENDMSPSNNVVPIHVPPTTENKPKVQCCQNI
Chain of Rab7 (mouse (endogenous in bEnd3)) (P51150 whole entry): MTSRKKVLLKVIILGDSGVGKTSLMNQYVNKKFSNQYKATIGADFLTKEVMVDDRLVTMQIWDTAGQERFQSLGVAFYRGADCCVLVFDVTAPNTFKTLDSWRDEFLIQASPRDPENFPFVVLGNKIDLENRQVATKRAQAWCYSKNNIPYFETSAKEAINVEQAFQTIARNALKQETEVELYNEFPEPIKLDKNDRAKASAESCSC

syndapin-2 (from UniProt Q9WVE8 1-486) (natural protein)
< 20: [1] | [2] | [3]
